Experimental data reported in patent US10406218B2 (priority 2014, dated 2019).

B1: Rv1196: MTB antigen currently included in TB vaccines in clinical development (protein, UniProt L7N675 1-391, looked up)
PPE family protein PPE18: MVDFGALPPEINSARMYAGPGSASLVAAAQMWDSVASDLFSAASAFQSVVWGLTVGSWIGSSAGLMVAAASPYVAWMSVTAGQAELTAAQVRVAAAAYETAYGLTVPPPVIAENRAELMILIATNLLGQNTPAIAVNEAEYGEMWAQDAAAMFGYAAATATATATLLPFEEAPEMTSAGGLLEQAAAVEEASDTAAANQLMNNVPQALQQLAQPTQGTTPSSKLGGLWKTVSPHRSPISNMVSMANNHMSMTNSGVSMTNTLSSMLKGFAPAAAAQAVQTAAQNGVRAMSSLGSSLGSSGLGGGVAANLGRAASVGSLSVPQAWAAANQAVTPAARALPLTSLTSAAERGPGQMLGGLPVGQMGARAGGGLSGVLRVPPRPYVMPHSPAAG
B2: Rv0288: MTB antigen currently included in TB vaccines in clinical development (protein, UniProt P9WNK3 1-96, looked up)
ESAT-6-like protein EsxH: MSQIMYNYPAMLGHAGDMAGYAGTLQSLGAEIAVEQAALQSAWQGDTGITYQAWQAQWNQAMEDLVRAYHAMSSTHEANTMAMMARDTAEAAKWGG
B3: Rv1886c: MTB antigen currently included in TB vaccines in clinical development (protein, UniProt P9WQP1 41-325, looked up)
Diacylglycerol …: FSRPGLPVEYLQVPSPSMGRDIKVQFQSGGNNSPAVYLLDGLRAQDDYNGWDINTPAFEWYYQSGLSIVMPVGGQSSFYSDWYSPACGKAGCQTYKWETFLTSELPQWLSANRAVKPTGSAAIGLSMAGSSAMILAAYHPQQFIYAGSLSALLDPSQGMGPSLIGLAMGDAGGYKAADMWGPSSDPAWERNDPTQQIPKLVANNTRLWVYCGNGTPNELGGANIPAEFLENFVRSSNLKFQDAYNAAGGHNAVFNFPPNGTHSWEYWGAQLNAMKGDLQSSLGAG

What follows are molecules tested on T cells of LTBI and HC donors (assay: antigen reactivity in LTBI vs HC donors (LTBI-specific or crossreactive)). Conditions: response frequency and magnitude in LTBI vs HC donors, FIG. 10.
Assay type: cell-based, human
Text: The data herein implies that preexisting immunity and occasional boosting might be provided by exposure to NTMs, in a low MTB-complex exposure population such as the one from the general San Diego area. This might be viewed as desirable, or alternatively contributing an undesired confounding factor in evaluation of vaccination strategies. Regardless, whether or not preexisting, non-TB-complex related reactivity is present in the general population is an important issue has implication for the development of vaccination strategies. To further investigate this issue, epitope reactivity data (Lindestamm-Arlehamn et al, 2012) was mapped back to the specific antigens from which the epitopes were derived. Antigens recognized by 2 or more donors were further categorized as LTBI-specific or crossreactive according to the following criteria; antigens were categorized as LTBI-specific if there was a lack of reactivity in HC individuals, or if the ratio between response frequency and total SFC for LTBI/HC were >4. All other antigens were categorized as crossreactive.

Row | Molecule | antigen reactivity category (LTBI-specific or crossreactive)
1 | B1 | exclusively specific
2 | B2 | widely cross-reactive
3 | B3 | widely cross-reactive
